US20190375846A1

Target: human GITR at the cell surface (human) (UniProt Q9Y5U5)
Experiment: cell-based or functional assay

human GITR at the cell surface (human), sequence (Q9Y5U5 26-241): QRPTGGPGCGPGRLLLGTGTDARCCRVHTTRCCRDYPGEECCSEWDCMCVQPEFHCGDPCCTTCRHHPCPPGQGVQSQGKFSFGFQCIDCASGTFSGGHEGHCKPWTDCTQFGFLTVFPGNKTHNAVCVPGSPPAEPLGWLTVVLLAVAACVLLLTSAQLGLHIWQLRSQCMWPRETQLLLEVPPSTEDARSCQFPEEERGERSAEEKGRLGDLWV

concentration of maximum signal, GITR agonism reporter assay: 1000 to 2000 ng/mL
Substance: HA-tagged human GITRL protein cross-linked with anti-HA tag antibody (from UniProt Q9UNG2 52-177) (ligand)
